# Tests used:
# [1] = biological target: voltage-gated sodium channel Nav1.4 (UniProt P35499)
# [2] = biological target: voltage-gated sodium channel Nav1.7 (UniProt Q15858)
# [3] = biological target: voltage-gated sodium channel Nav1.1 (UniProt P35498)
# [4] = biological target: voltage-gated sodium channel Nav1.2 (UniProt Q99250)
# [5] = biological target: voltage-gated sodium channel Nav1.3 (UniProt Q9NY46)
# [6] = biological target: voltage-gated sodium channel Nav1.4 (UniProt P35499); remark: listed apart in the source
# [7] = biological target: voltage-gated sodium channel Nav1.5 (UniProt Q14524)
# [8] = biological target: voltage-gated sodium channel Nav1.6 (UniProt Q9UQD0)
# [9] = biological target: voltage-gated sodium channel Nav1.7 (UniProt Q15858); remark: listed apart in the source
# Sequence of voltage-gated sodium channel Nav1.4 (P35499 whole entry): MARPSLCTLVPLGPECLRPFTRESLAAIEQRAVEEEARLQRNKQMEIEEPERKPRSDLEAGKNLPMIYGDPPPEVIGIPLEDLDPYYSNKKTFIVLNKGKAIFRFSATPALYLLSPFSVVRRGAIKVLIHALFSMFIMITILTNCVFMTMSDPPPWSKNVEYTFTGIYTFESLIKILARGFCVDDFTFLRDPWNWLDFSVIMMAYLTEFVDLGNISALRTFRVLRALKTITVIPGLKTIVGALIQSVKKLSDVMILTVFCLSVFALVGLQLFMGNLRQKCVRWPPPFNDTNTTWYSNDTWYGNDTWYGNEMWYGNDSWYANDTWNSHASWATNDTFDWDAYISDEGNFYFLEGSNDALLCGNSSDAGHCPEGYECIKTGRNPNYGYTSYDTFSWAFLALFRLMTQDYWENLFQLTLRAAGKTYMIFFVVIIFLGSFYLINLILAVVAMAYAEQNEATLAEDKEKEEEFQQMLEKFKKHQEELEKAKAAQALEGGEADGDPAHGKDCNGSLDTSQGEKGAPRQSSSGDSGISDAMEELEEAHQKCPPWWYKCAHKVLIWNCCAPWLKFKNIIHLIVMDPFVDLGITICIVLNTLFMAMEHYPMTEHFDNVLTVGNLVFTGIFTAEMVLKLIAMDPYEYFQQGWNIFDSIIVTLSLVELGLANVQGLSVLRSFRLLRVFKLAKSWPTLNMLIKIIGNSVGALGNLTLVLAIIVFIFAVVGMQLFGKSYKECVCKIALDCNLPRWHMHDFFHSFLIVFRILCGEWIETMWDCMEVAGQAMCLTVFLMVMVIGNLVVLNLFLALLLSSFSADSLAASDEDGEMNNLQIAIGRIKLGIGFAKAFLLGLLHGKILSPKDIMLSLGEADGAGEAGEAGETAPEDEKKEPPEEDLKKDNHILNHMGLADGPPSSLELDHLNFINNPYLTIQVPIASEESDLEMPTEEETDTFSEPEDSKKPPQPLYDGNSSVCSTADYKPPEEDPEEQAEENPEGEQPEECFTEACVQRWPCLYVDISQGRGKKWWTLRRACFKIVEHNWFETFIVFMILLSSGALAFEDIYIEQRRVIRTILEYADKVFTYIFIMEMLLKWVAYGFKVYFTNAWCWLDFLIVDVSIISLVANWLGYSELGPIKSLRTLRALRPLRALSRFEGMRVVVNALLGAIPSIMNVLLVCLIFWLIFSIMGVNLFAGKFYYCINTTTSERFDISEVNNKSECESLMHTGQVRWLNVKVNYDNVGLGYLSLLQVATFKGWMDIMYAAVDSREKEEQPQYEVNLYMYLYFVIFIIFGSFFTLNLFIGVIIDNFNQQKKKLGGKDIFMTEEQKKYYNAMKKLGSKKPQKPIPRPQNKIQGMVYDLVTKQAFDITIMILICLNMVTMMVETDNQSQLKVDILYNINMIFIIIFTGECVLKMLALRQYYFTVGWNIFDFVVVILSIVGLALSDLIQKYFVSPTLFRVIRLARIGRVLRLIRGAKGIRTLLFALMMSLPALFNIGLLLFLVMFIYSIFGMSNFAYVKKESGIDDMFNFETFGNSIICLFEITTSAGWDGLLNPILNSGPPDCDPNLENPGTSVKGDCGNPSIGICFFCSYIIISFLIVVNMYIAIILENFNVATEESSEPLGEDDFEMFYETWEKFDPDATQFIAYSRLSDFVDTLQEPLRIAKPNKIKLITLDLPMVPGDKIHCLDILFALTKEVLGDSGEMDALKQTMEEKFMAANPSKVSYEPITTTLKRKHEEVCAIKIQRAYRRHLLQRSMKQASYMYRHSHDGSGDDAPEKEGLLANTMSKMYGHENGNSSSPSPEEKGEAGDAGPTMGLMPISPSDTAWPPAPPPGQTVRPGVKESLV
# Sequence of Tst3 toxin from Tityus stigmurus venom (P0C8X5 whole entry): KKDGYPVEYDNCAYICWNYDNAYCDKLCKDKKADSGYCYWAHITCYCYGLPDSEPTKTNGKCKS
# Sequence of voltage-gated sodium channel Nav1.7 (Q15858 whole entry): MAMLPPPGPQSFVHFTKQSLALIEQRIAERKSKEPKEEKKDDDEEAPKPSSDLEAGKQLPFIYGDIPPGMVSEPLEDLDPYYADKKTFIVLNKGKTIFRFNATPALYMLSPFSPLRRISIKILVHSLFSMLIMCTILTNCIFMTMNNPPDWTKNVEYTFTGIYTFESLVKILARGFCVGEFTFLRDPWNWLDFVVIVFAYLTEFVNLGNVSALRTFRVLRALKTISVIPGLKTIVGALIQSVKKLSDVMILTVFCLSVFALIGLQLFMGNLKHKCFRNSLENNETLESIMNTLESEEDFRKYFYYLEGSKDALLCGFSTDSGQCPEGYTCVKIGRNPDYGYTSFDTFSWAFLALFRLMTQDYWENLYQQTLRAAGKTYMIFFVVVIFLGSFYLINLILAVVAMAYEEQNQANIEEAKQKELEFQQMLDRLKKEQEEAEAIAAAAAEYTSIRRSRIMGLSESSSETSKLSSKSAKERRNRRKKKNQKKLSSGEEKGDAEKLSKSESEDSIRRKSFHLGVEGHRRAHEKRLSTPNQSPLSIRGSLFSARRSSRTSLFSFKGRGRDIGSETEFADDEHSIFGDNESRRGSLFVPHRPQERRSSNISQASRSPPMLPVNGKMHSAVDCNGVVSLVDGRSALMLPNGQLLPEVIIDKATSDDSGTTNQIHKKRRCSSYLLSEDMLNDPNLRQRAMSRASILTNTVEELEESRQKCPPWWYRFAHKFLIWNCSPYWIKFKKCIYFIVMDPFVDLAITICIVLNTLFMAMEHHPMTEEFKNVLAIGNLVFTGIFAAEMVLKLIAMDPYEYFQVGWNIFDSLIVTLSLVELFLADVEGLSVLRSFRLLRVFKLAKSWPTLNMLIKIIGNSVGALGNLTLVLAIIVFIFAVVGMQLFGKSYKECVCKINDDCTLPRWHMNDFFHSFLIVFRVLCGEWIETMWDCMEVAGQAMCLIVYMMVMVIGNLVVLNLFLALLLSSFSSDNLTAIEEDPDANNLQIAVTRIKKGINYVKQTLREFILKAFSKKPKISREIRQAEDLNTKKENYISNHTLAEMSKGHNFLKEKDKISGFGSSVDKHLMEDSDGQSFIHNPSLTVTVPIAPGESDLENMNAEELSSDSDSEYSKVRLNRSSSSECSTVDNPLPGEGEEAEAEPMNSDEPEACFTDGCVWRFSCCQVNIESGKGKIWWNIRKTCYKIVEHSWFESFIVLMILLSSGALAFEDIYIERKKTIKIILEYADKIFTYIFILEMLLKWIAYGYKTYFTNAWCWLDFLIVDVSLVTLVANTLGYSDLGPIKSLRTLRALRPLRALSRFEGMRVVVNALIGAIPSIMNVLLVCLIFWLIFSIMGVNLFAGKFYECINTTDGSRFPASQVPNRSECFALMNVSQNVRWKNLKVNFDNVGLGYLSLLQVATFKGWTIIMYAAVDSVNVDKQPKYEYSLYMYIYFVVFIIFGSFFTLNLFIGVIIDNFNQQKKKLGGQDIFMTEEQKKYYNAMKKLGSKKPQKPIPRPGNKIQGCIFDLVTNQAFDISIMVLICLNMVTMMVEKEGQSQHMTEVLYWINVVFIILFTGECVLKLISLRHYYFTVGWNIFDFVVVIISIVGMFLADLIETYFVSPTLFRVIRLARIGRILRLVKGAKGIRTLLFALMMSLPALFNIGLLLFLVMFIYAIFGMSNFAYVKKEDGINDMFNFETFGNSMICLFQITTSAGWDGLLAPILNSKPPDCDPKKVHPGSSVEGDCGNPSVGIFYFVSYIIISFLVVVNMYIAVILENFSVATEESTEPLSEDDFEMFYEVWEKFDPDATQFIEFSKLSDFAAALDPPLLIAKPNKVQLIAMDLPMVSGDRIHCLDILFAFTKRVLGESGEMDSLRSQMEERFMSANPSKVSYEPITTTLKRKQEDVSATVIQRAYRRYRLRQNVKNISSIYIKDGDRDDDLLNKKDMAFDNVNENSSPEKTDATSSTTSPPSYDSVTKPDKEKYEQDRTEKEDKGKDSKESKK
substance,measurement,setting,value
Ts3 toxin from Tityus serrulatus venom (natural protein),"increase of the fast inactivation time constant (Δτ) of Nav1.4 currents recorded at 0 mV, whole-cell patch clamp, 200 nM Ts3",[1],4.82 ms
same,"increase of the persistent current (ΔIPers) of Nav1.4, whole-cell patch clamp, 200 nM Ts3",[1],3.1%
same,"shift of the half-maximal activation voltage (ΔV1/2) of Nav1.4, whole-cell patch clamp, 200 nM Ts3",[1],-4.15 mV
same,"shift of the half-maximal steady-state inactivation voltage (ΔV1/2h) of Nav1.4, whole-cell patch clamp, 200 nM Ts3",[1],2.03 mV
same,"delay of fast inactivation of Nav1.7 currents recorded at 0 mV, whole-cell patch clamp, 200 nM Ts3",[2],9.37 ms
Tst3 toxin from Tityus stigmurus venom (from UniProt P0C8X5 1-64) (natural protein),"increase of the fast inactivation time constant (Δτ) of Nav1.4 currents recorded at 0 mV, two-step protocol of the Tst3/Ts3 comparison, whole-cell patch clamp, 200 nM Tst3",[1],6.09 ms
same,"increase of the persistent current (ΔIPers) of Nav1.4, whole-cell patch clamp, 200 nM Tst3",[1],4.4%
same,"shift of the half-maximal activation voltage (ΔV1/2) of Nav1.4, whole-cell patch clamp, 200 nM Tst3",[1],-5.19 mV
same,"shift of the half-maximal steady-state inactivation voltage (ΔV1/2h) of Nav1.4, whole-cell patch clamp, 200 nM Tst3",[1],1.22 mV
same,"increase of the fast inactivation time constant (Δτ) of Nav1.1, whole-cell patch clamp, 200 nM Tst3",[3],5.71 ms
same,"shift of the half-maximal activation voltage (ΔV1/2) of Nav1.1, whole-cell patch clamp, 200 nM Tst3",[3],-7.15 mV
same,"increase of the fast inactivation time constant (Δτ) of Nav1.2, whole-cell patch clamp, 200 nM Tst3",[4],9.17 ms
same,"shift of the half-maximal activation voltage (ΔV1/2) of Nav1.2, whole-cell patch clamp, 200 nM Tst3",[4],-9.02 mV
same,"increase of the fast inactivation time constant (Δτ) of Nav1.3, whole-cell patch clamp, 200 nM Tst3",[5],6.87 ms
same,"shift of the half-maximal activation voltage (ΔV1/2) of Nav1.3, whole-cell patch clamp, 200 nM Tst3",[5],-8.68 mV
same,"increase of the fast inactivation time constant (Δτ) of Nav1.4, activation protocol of the isoform screen, whole-cell patch clamp, 200 nM Tst3",[6],5.61 ms
same,"increase of the fast inactivation time constant (Δτ) of Nav1.5, whole-cell patch clamp, 200 nM Tst3",[7],13.2 ms
same,"shift of the half-maximal activation voltage (ΔV1/2) of Nav1.5, whole-cell patch clamp, 200 nM Tst3",[7],-8.66 mV
same,"increase of the fast inactivation time constant (Δτ) of Nav1.6, whole-cell patch clamp, 200 nM Tst3",[8],6.37 ms
same,"shift of the half-maximal activation voltage (ΔV1/2) of Nav1.6, whole-cell patch clamp, 200 nM Tst3",[8],-3.82 mV
same,"increase of the fast inactivation time constant (Δτ) of Nav1.7, activation protocol of the isoform screen, whole-cell patch clamp, 200 nM Tst3",[9],18.8 ms
same,"shift of the half-maximal activation voltage (ΔV1/2) of Nav1.7, whole-cell patch clamp, 200 nM Tst3",[9],-8.55 mV
same,"delay of fast inactivation of Nav1.7 currents recorded at 0 mV, whole-cell patch clamp, 200 nM Tst3",[2],12.6 ms
